Data from paper PMC5499865 (Nucleic Acids Research, 2017).

Molecular target: His-MPK6 (Arabidopsis thaliana, UniProt Q39026 1-395)
Assay: pull-down

His-MPK6, sequence (Q39026 whole entry): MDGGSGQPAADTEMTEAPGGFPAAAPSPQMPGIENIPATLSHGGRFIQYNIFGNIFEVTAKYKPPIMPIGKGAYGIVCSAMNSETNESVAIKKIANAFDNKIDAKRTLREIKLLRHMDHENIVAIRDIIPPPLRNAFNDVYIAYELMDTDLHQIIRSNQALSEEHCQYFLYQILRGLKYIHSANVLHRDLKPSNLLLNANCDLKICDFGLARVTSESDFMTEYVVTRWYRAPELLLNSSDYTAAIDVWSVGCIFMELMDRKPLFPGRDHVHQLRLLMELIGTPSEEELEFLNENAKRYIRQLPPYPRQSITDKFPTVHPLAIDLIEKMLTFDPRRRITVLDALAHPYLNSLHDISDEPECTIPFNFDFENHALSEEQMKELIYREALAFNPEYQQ

B1: GST-MYB15 (natural protein, Arabidopsis thaliana, UniProt Q9LTC4 1-285, looked up)
chain: MGRAPCCEKMGLKRGPWTPEEDQILVSFILNHGHSNWRALPKQAGLLRCGKSCRLRWMNYLKPDIKRGNFTKEEEDAIISLHQILGNRWSAIAAKLPGRTDNEIKNVWHTHLKKRLEDYQPAKPKTSNKKKGTKPKSESVITSSNSTRSESELADSSNPSGESLFSTSPSTSEVSSMTLISHDGYSNEINMDNKPGDISTIDQECVSFETFGADIDESFWKETLYSQDEHNYVSNDLEVAGLVEIQQEFQNLGSANNEMIFDSEMDFWFDVLARTGGEQDLLAGL
binding result: binds
